The series concerns C[C@@H]1O[C@@H](O[C@H]2[C@H](O)[C@@H](O)C(O)O[C@@H]2C(=O)O)[C@H](O)[C@H](O)[C@H]1O. Nature of the series: purified protein. Conditions: 50 mM Hepes-NaOH pH 7.0, 30 °C, 20 nM enzyme.

Consider 1 substance from paper PMC8377490.

The term Km denotes the substrate concentration at which the rate is half of its maximum. What is called kcat is the maximal rate divided by the concentration of active sites. One may read the kcat/Km as the turnover number divided by the Michaelis constant. With “FoRham1 (GA-specific L-rhamnose-α-1,4-D-glucuronate lyase) (Fusarium oxysporum)”, the Km was found to be 2800 ± 200 µM, the kcat came to 95.5 s⁻¹ and the specificity constant (kcat/Km) came to 34100 M⁻¹ s⁻¹.
